This passage reports KD results from patent US20260116920A1 (PEPTIDREAM, published 2026).

Starred links: 1 amine or outer side, 2 acyl side, 3 side chain; linkers in the order of their positions; H or OH if unused. Positions of bridges follow the written chain, without caps; N, C: chain ends. Non-standard residues stand in square brackets, D forms with d. Primed or numbered codes have the meaning given here. No end group written: not given here. *: point of attachment. MePEG4c″ = K(MePEG4c) = (S)-20-amino-14-oxo-2,5,8,11-tetraoxa-15-azahenicosane-21-oic acid (Lys side chain acylated with methoxy-PEG4 acid), COCCOCCOCCOCCC(=O)*; E(PEG8Me) = (S)-30-amino-27-oxo-2,5,8,11,14,17,20,23-octaoxa-26-azahentriacontane-31-oic acid, COCCOCCOCCOCCOCCOCCOCCOCCNC(=O)CC[C@H](N[*:1])C(=O)[*:2]; F4aao = (S)-2-amino-3-(4-(carboxymethoxy)phenyl)propanoic acid, O=C([C@H](Cc1ccc(OCC(=O)[*:3])cc1)N[*:1])[*:2]; MePEG4c = K(MePEG4c) = (S)-20-amino-14-oxo-2,5,8,11-tetraoxa-15-azahenicosane-21-oic acid, COCCOCCOCCOCCC(=O)*; Phe(4-OMe)″ = (S)-2-amino-3-(4-methoxyphenyl)propanoic acid (F4OMe), COc1ccc(C[C@H](N[*:1])C(=O)[*:2])cc1; Phe(4-OMe) = F4OMe = (S)-2-amino-3-(4-methoxyphenyl)propanoic acid, COc1ccc(C[C@H](N[*:1])C(=O)[*:2])cc1; Trp(1-CH2CO) = O=C([C@H](Cc1cn(CC(=O)[*:3])c2ccccc12)N[*:1])[*:2]; Trp(5-Cl) = N[C@@H](Cc1c[nH]c2ccc(Cl)cc12)C(=O)O; Phe(3-COOH) = N[C@@H](Cc1cccc(C(=O)O)c1)C(=O)O; NMePhe(3-Cl) = CN[C@@H](Cc1cccc(Cl)c1)C(=O)O; NMePhe(4-F) = CN[C@@H](Cc1ccc(F)cc1)C(=O)O; 3Pal(6-NH2) = Nc1ccc(C[C@H](N)C(=O)O)cn1; NMeW = CN[C@@H](Cc1c[nH]c2ccccc12)C(=O)O; NMe3Pal = CN[C@@H](Cc1cccnc1)C(=O)O; NMe4Pal = CN[C@@H](Cc1ccncc1)C(=O)O; NMeY = CN[C@@H](Cc1ccc(O)cc1)C(=O)O; NMeR = CN[C@@H](CCCNC(=N)N)C(=O)O; NMeF = CN[C@@H](Cc1ccccc1)C(=O)O; 3Pal = N[C@@H](Cc1cccnc1)C(=O)O; 4Pal = N[C@@H](Cc1ccncc1)C(=O)O; NMeA = CN[C@@H](C)C(=O)O

T1 sequence (P02786 89-760 limits assumed): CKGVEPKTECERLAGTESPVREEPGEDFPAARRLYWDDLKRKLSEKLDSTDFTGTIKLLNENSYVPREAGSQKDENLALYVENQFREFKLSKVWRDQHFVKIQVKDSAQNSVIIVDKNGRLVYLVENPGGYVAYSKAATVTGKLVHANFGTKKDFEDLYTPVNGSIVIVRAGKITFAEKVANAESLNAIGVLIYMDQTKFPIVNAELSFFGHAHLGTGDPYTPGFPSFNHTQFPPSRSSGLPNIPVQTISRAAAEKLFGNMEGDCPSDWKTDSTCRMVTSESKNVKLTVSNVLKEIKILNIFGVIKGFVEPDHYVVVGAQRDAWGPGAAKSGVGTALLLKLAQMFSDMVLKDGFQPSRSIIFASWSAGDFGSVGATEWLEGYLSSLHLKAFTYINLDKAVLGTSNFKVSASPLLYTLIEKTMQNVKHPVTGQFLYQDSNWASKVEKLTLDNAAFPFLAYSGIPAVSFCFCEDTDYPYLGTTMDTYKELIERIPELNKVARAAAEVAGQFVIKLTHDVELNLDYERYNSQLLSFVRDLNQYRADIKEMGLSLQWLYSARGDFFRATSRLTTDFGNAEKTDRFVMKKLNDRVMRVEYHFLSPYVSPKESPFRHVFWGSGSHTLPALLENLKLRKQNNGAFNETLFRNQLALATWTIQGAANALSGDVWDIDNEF

This experiment has as its target T1, human transferrin receptor (hTfR) (human, UniProt P02786 89-760).
T1 construct: used as 0.5 uM hTfR dimer solution, immobilised on an NTA sensor chip (Ni capture plus EDC/NHS coupling); also called human TfR; TfR1
As to the kind of experiment: SPR; B = KD 1-100 nM. As to the method: NTA sensor chip (Global Life Sciences Technologies Japan K.K.) was inserted into BiacoreT200 (Global Life Sciences Technologies Japan K.K.), then the priming operation was performed three times by using running buffer containing: 10 mM HEPES pH 8.0 (Nacalai Tesque, Inc.), 150 mM NaCl (Nacalai Tesque, Inc.), 0.05% Tween 20 (Nacalai Tesque, Inc.), 0.1% BSA (SIGMA-ALDRICH) and 1.0% DMSO (FUJIFILM Wako Pure Chemical Corporation), and equilibrated at a flow rate of 30 μL/min. 350 mM EDTA solution was reacted at a flow rate of 10 μL/min for 60 seconds, 0.5 mM […] solution (Kishida Chemical Co., Ltd.) was reacted at a flow rate of 10 μL/min for 60 seconds, and then the NTA sensor chip was washed with 3 mM EDTA solution (Nacalai Tesque, Inc.) at a flow rate of 10 μL/min for 60 seconds. After mixing 50 μL each of 60 mM EDC solution (Global Life Science Technologies Japan K.K.) and 650 mM NHS solution (Global Life Science Technologies Japan K.K.), the reaction was carried out at a flow rate of 10 μL/min for 420 seconds. 150 μL of 0.5 μM hTfR dimer solution was prepared by dilution with running buffer and reacted at a flow rate of 10 μL/min for 300 seconds to immobilize hTfR on the NTA sensor chip. For the human transferrin receptor (hTfR), recombinant hTfR described in Example 2 of WO2018/124121 was used. After immobilization, capping was performed by reacting with 1.0 M ethanolamine solution (Global Life Sciences Technologies Japan K.K.) at a flow rate of 10 μL/min for 420 seconds. Peptide lysate prepared in DMSO solution to 10 mM was diluted with running buffer to be a final concentration of 10 μM peptide lysate, then peptide solutions of 100 nM, 50 nM, 25 nM, 10 nM, and 5 nM were prepared. Using the above samples, the kinetics of the peptide against hTfR was obtained by SPR measurement.
The kinetic evaluation model was single-cycle kinetics, and curve fitting was performed using Biacore T200 Evaluation Software Version 3.0 (Global Life Science Technologies Japan K.K.). The binding of the peptide to hTfR was evaluated by performing curve fitting on the obtained sensorgram by least squares method and obtaining the KD value.
As to {CH2CO}-AV[NMePhe(4-F)]V[Trp(5-Cl)]NY[Phe(4-OMe)]II[NMeR]K(MePEG4c)FYC-NH2 (thioether N-15; not fully specified (residue 14)) [894_0268], the KD fell in the range of 1 to 100 nM.
As for {CH2CO}-AV[NMe4Pal]VWNY[Phe(4-OMe)″]IIRRF[NMeY]C-NH2 (thioether N-15; also: linker PEG4c) [894_0314], the figure is 1 to 100 nM.
Then {CH2CO}-AV[NMe3Pal]VWNY[Phe(4-OMe)″]IIRR[4Pal][NMeY]C-NH2 (thioether N-15; also: linker PEG4c) [894_0316], with 1 to 100 nM; and {CH2CO}-AV[NMePhe(3-Cl)]VWN[3Pal(6-NH2)][Phe(4-OMe)″]IIRR[4Pal][NMeY]C-NH2 (thioether N-15; also: linker PEG4c) [894_0311], with 1 to 100 nM; and {CH2CO}-AV[NMeF]VWNYYIIR[dR]FYC-NH2 (thioether N-15; not fully specified (residue 14); also: linker PEG4c) [894_0282, listing 1 of 2 here], with 1 to 100 nM.
Then {CH2CO}-[NMeA]V[NMePhe(3-Cl)]V[NMeW]NY[Phe(4-OMe)]IIR[dA]FYC-NH2 (thioether N-15; not fully specified (residue 14); also: linker PEG4c) [894_0287], with 1 to 100 nM.
As for {CH2CO}-AV[NMePhe(3-Cl)]VWNY[3Pal]IIRRF[NMeY]C (thioether N-15; not fully specified (C-terminus)) [894_0318], the KD is 1 to 100 nM.
Then {CH2CO}-AV[NMePhe(3-Cl)]V[Trp(1-CH2CO)]NY[F4aao]IIRQF[NMeY]C (thioether N-15; not fully specified (C-terminus)) [894_0303], with 1 to 100 nM; and {CH2CO}-AV[NMePhe(3-Cl)]V[Trp(1-CH2CO)]N[3Pal(6-NH2)][3Pal]IIRR[4Pal][NMeY]C (thioether N-15; not fully specified (C-terminus)) [894_0307], with 1 to 100 nM; and {CH2CO}-AV[NMePhe(3-Cl)]VWNY[3Pal]IIRR[4Pal][NMeY]C (thioether N-15; not fully specified (C-terminus)) [894_0309], with 1 to 100 nM.
On to {CH2CO}-AV[NMePhe(4-F)]V[NMeW]NY[Phe(4-OMe)]IIK(MePEG4c″)[dR]FYC-NH2 (thioether N-15; not fully specified (residue 14)) [894_0270], for which the KD lay in the range of 1 to 100 nM.
Then {CH2CO}-AV[NMePhe(3-Cl)]V[Trp(1-CH2CO)]N[3Pal(6-NH2)][Phe(4-OMe)″]IIRR[4Pal][NMeY]C (thioether N-15; not fully specified (C-terminus)) [894_0308], with 1 to 100 nM.
{CH2CO}-AV[NMePhe(4-F)]V[NMeW]NY[Phe(4-OMe)]II[NMeR]K(MePEG4c″)FYC-NH2 (thioether N-15; not fully specified (residue 14)) [894_0272] gave a KD of 1 to 100 nM.
Then {CH2CO}-AV[NMePhe(3-Cl)]V[Trp(1-CH2CO)]NY[F4aao]II[E(PEG8Me)]R[Phe(3-COOH)][NMeY]C (thioether N-15; not fully specified (C-terminus)) [894_0301], with 1 to 100 nM; and {CH2CO}-AV[NMePhe(3-Cl)]VWN[3Pal(6-NH2)][Phe(4-OMe)″]IIRRF[NMeY]C-NH2 (thioether N-15; also: linker PEG4c) [894_0315], with 1 to 100 nM.
Then {CH2CO}-AV[NMePhe(4-F)]V[NMeW]NYYIIK(MePEG4c″)[dR]FYC-NH2 (thioether N-15; not fully specified (residue 14)) [894_0269], with 1 to 100 nM; and {CH2CO}-AV[NMePhe(3-Cl)]V[Trp(1-CH2CO)]NY[F4aao]IIR[E(PEG8Me)]F[NMeY]C (thioether N-15; not fully specified (C-terminus)) [894_0299], with 1 to 100 nM; and {CH2CO}-AV[NMePhe(3-Cl)]V[Trp(1-CH2CO)]NY[F4aao]IIQRF[NMeY]C (thioether N-15; not fully specified (C-terminus)) [894_0302], with 1 to 100 nM.
{CH2CO}-AV[NMeF]VWNYYII[NMeR]RFYC-NH2 (thioether N-15; not fully specified (residue 14); also: linker PEG4c) [894_0284, listing 1 of 2 here] yielded a KD of 1 to 100 nM.
Then {CH2CO}-AV[NMePhe(4-F)]V[NMeW]NYYII[NMeR]K(MePEG4c″)FYC-NH2 (thioether N-15; not fully specified (residue 14)) [894_0271], with 1 to 100 nM; and {CH2CO}-AV[NMePhe(3-Cl)]V[Trp(1-CH2CO)]NY[F4aao]II[E(PEG8Me)]RF[NMeY]C (thioether N-15; not fully specified (C-terminus)) [894_0298], with 1 to 100 nM.
Then {CH2CO}-AV[NMeF]VWNYYII[NMeR]RFYC-NH2 (thioether N-15; not fully specified (residue 14); also: linker PEG4c) [894_0284, listing 2 of 2 here], with 1 to 100 nM; and {CH2CO}-AV[NMePhe(3-Cl)]V[Trp(1-CH2CO)]NY[3Pal]IIRR[4Pal][NMeY]C (thioether N-15; not fully specified (C-terminus)) [894_0306], with 1 to 100 nM; and {CH2CO}-AV[NMePhe(3-Cl)]VWN[3Pal(6-NH2)][3Pal]IIRR[4Pal][NMeY]C-NH2 (thioether N-15; also: linker PEG4c) [894_0310], with 1 to 100 nM.
As for {CH2CO}-AV[NMePhe(3-Cl)]VWNY[4Pal]IIRR[4Pal][NMeY]C-NH2 (thioether N-15; also: linker PEG4c) [894_0312], the equilibrium dissociation constant (KD) fell in the range of 1 to 100 nM.
Then {CH2CO}-AV[NMe3Pal]VWNY[Phe(4-OMe)″]IIRRF[NMeY]C-NH2 (thioether N-15; also: linker PEG4c) [894_0313], with 1 to 100 nM; and {CH2CO}-AV[NMeF]VWNY[F4aao]IIRRYYC-NH2 (thioether N-15; not fully specified (residue 14); also: linker PEG4c) [894_0296], with 1 to 100 nM; and {CH2CO}-AV[NMeF]V[Trp(1-CH2CO)]NY[F4aao]IIRRYYC-NH2 (thioether N-15; not fully specified (residue 14); also: linker PEG4c) [894_0297], with 1 to 100 nM.
In the case of {CH2CO}-AV[NMeF]VWNYYIIR[dR]FYC-NH2 (thioether N-15; not fully specified (residue 14); also: linker PEG4c) [894_0282, listing 2 of 2 here], the KD fell in the range of 1 to 100 nM.
